{"source": "the DeepSol protein solubility set"}
{"assay": "soluble on expression in E. coli; label from the status in PepcDB or PDB records"}
{"sequence": "MKRSLLACAMSCMMLTVSAHSDFDVRNVDSQFHVPEIGGGVGLIDQQKERQIGEKVFREIQKQMPVVHDPWLQEQYSQIFLRVLAQTSITQPVGLVIIKDPQINAFAVPGGLFALNTGLIANARNIDEVAGVMAHEVAHVTQRHYSRSQEAFKGQGLLALAGILVGAAVATTSNADVGSAVMLGTQAALMDRQLTYSRNQEREADRIGMQYMYAAGYNPQSMADFFETMQRSRVGSSFMPDFWMTHPLTTERMSEARLRANQLPKVETKLYDPNFQLLKWYTLAVSDPSSEKILENVVKQGNKEAQLALGAYYVGQGDFVKAQKQLDDIKSQFNENTLYCLIQTNIYLGQNELDQAYSSIVNIQRAMPESRALAYKLAEVMILQGKAGDTLQLIQPFVNRNPRDLEGWQLMQQASSIDRISPVQTVNTLRYRAEVQFWSGNEENAIKSLLHAQRLAKGNESLSARIDSRLKQMQSDYTMKI", "soluble on expression in E. coli": "not soluble"}
{"sequence": "MKRTPLFEKHVELGAKMVDFAGWEMPLYYTSIFEEVMAVRKSVGMFDVSHMGEFLVKGPEAVSFIDFLITNDFSSLPDGKAIYSVMCNENGGIIDDLVVYKVSPDEALMVVNAANIEKDFNWIKSHSKNFDVEVSNISDTTALIAFQGPKAQETLQELVEDGLEEIAYYSFRKSIVAGVETLVSRTGYTGEDGFELMLEAKNAPKVWDALMNLLRKIDGRPAGLGARDVCRLEATYLLYGQDMDENTNPFEVGLSWVVKLNKDFVGKEALLKAKEKVERKLVALELSGKRIARKGYEVLKNGERVGEITSGNFSPTLGKSIALALVSKSVKIGDQLGVVFPGGKLVEALVVKKPFYRGSVRREV", "soluble on expression in E. coli": "soluble"}
{"sequence": "MKRVLIVGATGTIGGVVRQTLLNETDNQLTLFARSANRLKTSERESVIAGDVTKDSDLDKAIAGQDVVFVALSGSLGRFAQKIVAAMDRNKVSRLLFITSMGIYDEIPASVGASGNLSSNPMLRTYREAADVVEASDLNYTLIRPGWFTGGPVDYEITKKGEPFGGHDVSINSIADFVKNAIVDNDYYAHDSVGLNAK", "soluble on expression in E. coli": "not soluble"}
{"sequence": "MKRYTVKDIEALLPKLGADDPRWEMLRQDERKSVQALLARFERQKARRHAIEQRWEELMRYERELYAAGVRRIAGIDEAGRGPLAGPVVAAAVILPKDAYLPGLDDSKRLTPEKREALFAQIEACAVAIGIGIVSAAEIDERNIYEATRQAMAKAVNALSPPPEHLLVDAMAVPCPLPQQRLIKGDANSASIAAASVIAKVTRDRWMKELDRRYPQYGFARHMGYGTPEHFEAIRRYGVTPEHRRSFAPVREVLKASEQL", "soluble on expression in E. coli": "soluble"}
{"sequence": "MKSAIPSLMVQGTTSDAGKSVLVAGLCRVLARKGINVAPFKPQNMALNSAVTKDGGEIGRAQAVQAQACNIEPTVHMNPVLIKPNSDTGAQIILQGKALSNMDAASFHDYKKVAMNTVLDSFSKLTKEFDSIMIEGAGSPAEINLREGDIANMGFAEAADVPVIIVADIDRGGVFAHLYGTLALLSESEQTRVKGFVINRFRGDIRLLQSGLDWLEEKTGKPVLGVLPYLHGLNLEAEDAITAQQELNSEVKLNVVVPVLTRISNHTDFDVLRLNPDINLSYVGKGEKI", "soluble on expression in E. coli": "not soluble"}
{"sequence": "MKSGERSAVADRAQQIMSAARELLDAEGPDALSMRRIAERVGIRAPSLYKHFADKAALVAGLQAQGLTLLAEVQEAAEAEIGADPPLLVLGYAYRRHALASPHLYRITHGWPLARTALPEGLEDRAALPLARAVHGDINIARSFWAFAHGMVVLELDGRFPPGADLDVAWRTGCEAFTQAIRNRPHGSTA", "soluble on expression in E. coli": "not soluble"}
{"sequence": "MKSIRSRKSRRLRANRRKKRVHQPKLRQKPAKASQSRSRRMSRTDYISENVYIVLVYPKYQGNIGAVARSMWNSGLRHLIIIGNRPDDEAFARSMGGRFILENAEIYDDFASVISRFNVIAATSSTASSNEKHFRRLPLTPEKFWEEMSDQGGKIALVFGREDDGLRNEEIEKCNYFINIPGNPEYPVYNLSHAVAIILYVMFTRFNPPENIEIRAIEPDHEDLMLRNIIEVMRLTSYPEHKIRNTELLLRRLIARSRMSDREYFRMMGVIRRVKESLQRPLENESDHQRN", "soluble on expression in E. coli": "not soluble"}
{"sequence": "MKSLQALFGGTFDPVHYGHLKPVETLANLIGLSRVIIMPNNVPPHRPQPEASSAQRKYMLELAIADKPLFTLDERELQRNAPSYTAQTLKAWREEQGPEAPLAFIIGQDSLLNFPTWHDYDTILDNTHLIVCRRPGYPLEMTQAQHQQWLEQHLTHTPDDLHQLPAGKIYLAETPWLNISATLIRERLEKGESCDDLLPENVLNYINQQGLYR", "soluble on expression in E. coli": "not soluble"}
{"sequence": "MKSLRFQSVFDIIGPVMIGPSSSHTAGAVRIGKIVSSIFDDTPTEVEFQLFNSFAKTYRGHGTDLALVAGILGMDTDDPEIPNSLEIAHKRGIKIVWTIQKDSNAPHPNTTKITVKNAHKTISVTGISIGGGNIQVTELNGF", "soluble on expression in E. coli": "not soluble"}
{"sequence": "MKSNKSKYKLVVDYVIDGINEGRLKKGAWIPSLNEFREMYGLSRDTVFSGIRELKSRGIIKSNPGVGYYIVSTRVPFKHNIFLLFNEFNEFKEDIYNSFMETVGNSATVDLYFHNYNRKVFETLVNNANHKYTTYIIMSGKFADIGPLLESLSGNVFLLDHYHSELKGKYSSVFQNFEKDTYEALVYGLSNLRKYKHIVMVQKDSKEPFERYDGLRAFCKEHGFTHECIGEIQGREIVKQEVFMVVNDRDLVNLLKQADRQQLVPGKDFGIISYNDTPLKEVLAGGITTLSTDFKLMGRTMASLINKKTIETIENPWNLNIRNSL", "soluble on expression in E. coli": "not soluble"}
{"sequence": "MKSNPAIQAAIDLTAGAAGGTACVLTGQPFDTMKVKMQTFPDLYRGLTDCCLKTYSQVGFRGFYKGTSPALIANIAENSVLFMCYGFCQQVVRKVAGLDKQAKLSDLQNAAAGSFASAFAALVLCPTELVKCRLQTMYEMETSGKIAKSQNTVWSVIKSILRKDGPLGFYHGLSSTLLREVPGYFFFFGGYELSRSFFASGRSKDELGPVPLMLSGGVGGICLWLAVYPVDCIKSRIQVLSMSGKQAGFIRTFLNVVKNEGITALYSGLKPTMIRAFPANGALFLAYEYSRKLMMNQLEAY", "soluble on expression in E. coli": "soluble"}
{"sequence": "MKSRFSARQQNSDNTADENKSTTTAVLLTNLGSPDEPTTSAVRRYLREFLSDTRVVEIPRLIWLLILHGIILRIRPAKSAKLYQTVWQDDGAPLISITAAQKEKMATKIKSQYGDNVIVDFAMRYGNPSIASVLQKFQQQGVDKLVVLPLYPQYAGPTTASTFDAVSKELQKWRYIPSIHFLNTYHNNPFYIQALAETVKEHVASHGKPERLVLSYHGMPELFHKWGDPYYDFCQE", "soluble on expression in E. coli": "not soluble"}
{"sequence": "MKSRTRWLTSEELVTLFEAMRQAPGFSVENGLSIKLLLLLAVRKGELIGARWSEFDLDKAVWYLPAERTKTESAIDIPLPPIAVEWLRELQRLAGVSKWVLPARKMQDRMIPHIAESTLSVALAKIKHGLEPFTIHDLRRTARTHFEALGVAPHIAERCLNHKIKGIEGIYNRHDYFEERKAALEAWAGLLLQIERGEADKVVPIRRAVATKQLEHHHHHH", "soluble on expression in E. coli": "not soluble"}
{"sequence": "MKTDVRWATFNIRYDNPQDSLNNWQYRKDRVCQFIKDHELDIVGMQEVLHNQFQDLRAGLPEYDGIGVGRDDGKTAGEYAPLFYRKDKYEVLDSNTFWLAENPDSVGMMGWDAVCVRIATWAKFKDKATGKIFMAVNTHFDHVGEEARRQSALLIIRKIKEIVGERPAVVTGDFNVTDASDAYETITTNEFVMKDAYKTAARVTGVDYTFHDFARIPAEDCEKIDFIFVTPQVLVKSCEIPAEVPEALLSDHNPQLADLELEHHHHHH", "soluble on expression in E. coli": "soluble"}
{"sequence": "MKTEHKQVVVVGAGPSGSTVSALLKSRGIDVVVIEKATFPRFSIGESLLPACMEVVELAGMTEAVKQHGFQFKDGAAFRRNGVYTHFDFTDKFTAGPGTTFQVQRASFDKVLADSAAEQGVDIRYQHELVSLAFEGKKSRLEVVGPDKQAYQIEADFVLDASGFGRVLPRLLDLEEPSCLPPRKAIFTHIEDHISPQEPEYDRNKILISVHPENHDVWYWLIPFSNGTCSFGVVGEPEFFEQYPEDKLAALQQLANEEPGLASLLRNAKYPNPVGELGGYSANVKRLATEHYALLGNAGEFLDPVFSSGVTIAMKSAQFAADCVVRQLNGEVVDWQEEYSERLMVGVNTFRTYVEGWYNGTLQDVIFYQAPNPRIKQMISAILAGYAWDTENPYVKQSEQRLSTLAELVRGEGFLEHHHHHH", "soluble on expression in E. coli": "soluble"}
{"sequence": "MKTIYLHHPITTDEWTDVKKVMALGFFDGVHLGHQAVIKQAKQIAEEKGLQTAVLTFDPHPSVVLSNIRKQVKYLTPLEDKAEKMANLGVDIMYVVRFTTQFSELSPRAFVDNYLVALNVKHVVAGFDYSYGKKGEGKMTELENYANGRFEVTIVDKQTAASDKISSTNIRRAITEGELEEANQLLGYP", "soluble on expression in E. coli": "not soluble"}
{"sequence": "MKTLHSLSEQLGGLLANQQQILASAESCTGGGVAYWVTEVAGSSAWFDRSFVTYSNEAKQEMLGVRQATLQQFGAVSEQTVEEMALGALLHSKATLAAAISGIAGPGGGSAEKPVGTVCFGFASVQGWLKVETCHFTGDREQVRQQAIAHVLQSLIEHLAADQVQNVN", "soluble on expression in E. coli": "not soluble"}
{"sequence": "MKTLNNTHIGQIYYIHKIIGKNQAKLRDLGMISDKKITLISTDGENAIVKIDETRLALSSEFLEQIFVKEERSSEDIIGLAHLQVGQTGVVRMIDATSDIRRRLMDMGITRGTSVHLQKLAPLGDPLELRLRGYSLSLRKTDAEKIKVVLERLEHHHHHH", "soluble on expression in E. coli": "soluble"}
{"sequence": "MKTLTDTDHIHTLIAEGEHQQQDFKFEISDARKIAKTLSAFANTDGGRLLIGVKDNGRIAGVRSEEEKYMIEAAAQLYCIPEIDYTLQTYIVEGKQVLVATIEENPHKPVYAKDENGKPLAYLRIKDENILATPIHLRVWQQSGSPRGELIRYTEREQLLLDLLEQGTLLSLNRYCRQTGISRRAAEHLLAKFVRYDIVEPVFENHKFYFRMKNELEHHHHHH", "soluble on expression in E. coli": "soluble"}
{"sequence": "MKTPSLILMTIILCNLSIPINAQILTSRQQKEDFDTLYSLLHQVHPDLFVYQTQKEFEKKHDSIYCLLNKERNLSDFYFIVSPFVASVKDGHTNFTIPATQDRIDYLNNGGLTLPLRLKIVENKILVDFPLISCSIQENDEIICMNNINSQTILSQLYLLLGAEKGNAIKENQLTSYLSTLLWYKYNWGEKYDFTIKRGKKIWKESLNGISQADAFPVLKARLGKSLPQFVYTLSPDKQTATLQIMNLYQLPQLKQFCDSVFSVINREHVPNLVIDVRNNKGGSSAGVDMLLSYLSHDAYILYIKTDLKISSYSKRYNEQKHPETYEEIKNLPDGSLFAIRDSFVEGNRDKADIYKGSVTVLVNESTYSGASTFASAIKKSHAGKVLGETGCPTVYFGNYMSFTLPNSRLEYYISLNKFYE", "soluble on expression in E. coli": "not soluble"}
{"sequence": "MKTVVIGAGLGGLLSAARLSKAGHEVEVFERLPITGGRFTNLSYKGFQLSSGAFHMLPNGPGGPLACFLKEVEASVNIVRSEMTTVRVPLKKGNPDYVKGFKDISFNDFPSLLSYKDRMKIALLIVSTRKNRPSGSSLQAWIKSQVSDEWLIKFADSFCGWALSLKSDEVPVEEVFEIIENMYRFGGTGIPEGGCKGIIDALETVISANGGKIHTGQEVSKILIENGKAAGIIADDRIHDADLVISNLGHAATAVLCSEALSKEADAAYFKMVGTLQPSAGIKICLAADEPLVGHTGVLLTPYTRRINGVNEVTQADPELAPPGKHLTMCHQYVAPENVKNLESEIEMGLEDLKEIFPGKRYEVLLIQSYHDEWPVNRAASGTDPGNETPFSGLYVVGDGAKGKGGIEVEGVALGVMSVMEKVLGLEHHHHHH", "soluble on expression in E. coli": "soluble"}
{"sequence": "MKTYDPATAVKTTGEFNGKKRFAVLLMGTDTGALNRTEKRGRTDTMILAVVNPAKKRYTLVSIPRDTMAQMVGSSSFTTEKINAAYEIGGARMSMDSVSALINVPIKYYAVVNMGGIMKMIRYVGGINIRPTLSFEYGGYVFKKGKLTHMGGAGALAYSRMRYDDPRGDYGRQERQRQVITTLIKKAVSVSSLTNLDSILTSVSSNVRTNLPFSALQQIALNYRGCANSSSSDYLHGYNAMIDDAAYQVQPTEELQRISDLVRTELGLEHHHHHH", "soluble on expression in E. coli": "soluble"}
{"sequence": "MKVDKETIEYVANLARLRLSEKEKEKLALDLESIISYVDKLNELDTSKIIPTDHVIPIKNVFRDDEVRDSYPKDKMLMNAPEKEDGCFKVPKVVE", "soluble on expression in E. coli": "soluble"}
